Reference: patent US20240209065A1
pEC50: −log10 of the molar value. Where two headings read alike, the source gives them in different places.

How the values were obtained:
[1] = molecular target: SARS-CoV-2 Omicron BA.4/5 RBD, aa 319-541, C-terminal 6xHis-tag (SARS-CoV-2) (UniProt P0DTC2)
[2] = molecular target: SARS-CoV-2 Omicron BA.2 RBD, aa 319-541, C-terminal 6xHis-tag (SARS-CoV-2) (UniProt P0DTC2); test: ELISA, plates coated with RBD
[3] = molecular target: SARS-CoV-2 Omicron BA.2 RBD, aa 319-541, C-terminal 6xHis-tag (SARS-CoV-2) (UniProt P0DTC2)
[4] = molecular target: S protein of authentic SARS-CoV-2 Omicron BA.5 virus (SARS-CoV-2) (UniProt P0DTC2); test: cell-based or functional assay
[5] = molecular target: S protein of authentic SARS-CoV-2 Omicron BA.1 virus (SARS-CoV-2) (UniProt P0DTC2); test: cell-based or functional assay

Q: With DXP-604 IgG (antibody) as the substance, how does the pEC50 [1] read?
A: 8.80

Q: And the pEC50 [2]?
A: 8.02

Q: What about the pEC50 [3] of the same substance?
A: 8.02

Q: What about the IC50, microneutralization assay with authentic virus [4] of the same substance?
A: 12.4 nM

Q: And the IC50, microneutralization assay with authentic virus [5]?
A: 22.9 nM
